Data as given in article PMC7027792, “Phenylalanine meta‐Hydroxylase: A Single Residue Mediates Mechanistic Control of Aromatic Amino Acid Hydroxylation” (Chembiochem, 2019).
Residue numbers refer to the chain shown, from its start. Numbers in names are those of the source.

Columns and labels:
[1] = molecular target: T1, Phe3H (phenylalanine 3-hydroxylase) (Streptomyces coeruleorubidus, UniProt F5BFC8); assay: steady-state inhibition kinetics of hydroxylation; format: biochemical
T1 construct: gene pacX; purified Phe3H
Excerpt: steady-state inhibition kinetics of hydroxylation on […]

purified protein [2] = substrate: CC1Nc2nc(N)[nH]c(=O)c2NC1C; assay: purified protein; format: biochemical, Streptomyces coeruleorubidus; details: pterin varied, fixed L-Phe, pH 8, 28 °C, varied: cofactor
purified protein [3] = substrate: NC(Cc1ccc(F)cc1)C(=O)O; assay: purified protein; format: biochemical, Streptomyces coeruleorubidus; details: fixed 6MPH4 cofactor, racemic substrate, pH 8, 28 °C
purified protein [4] = substrate: NC(Cc1ccccc1F)C(=O)O; assay: purified protein; format: biochemical, Streptomyces coeruleorubidus; details: fixed 6MPH4 cofactor, racemic substrate, pH 8, 28 °C
purified protein [5] = substrate: N[C@@H](Cc1ccccc1)C(=O)O; assay: purified protein; format: biochemical, Streptomyces coeruleorubidus
[6] = fixed 6MPH4 cofactor, labelled compound, pH 8, 28 °C
[7] = fixed 6MPH4 cofactor, pH 8, 28 °C
[8] = pterin cofactor (6MPH4 for wild type), labelled compound
[9] = pterin cofactor (6MPH4 for wild type), optimised assay conditions

`NC(Cc1cccc(F)c1)C(=O)O` (racemic) [3F‐Phe] gave a Ki [1] of 800 µM.

B1: Phe3H (phenylalanine 3-hydroxylase) (Streptomyces coeruleorubidus) (protein)
chain: MQGPHAQMTDAAYEIRRSEIAALSTDLAPEDPIPVVEYTEWEHEVWRTVCVDLTARHRTDAAAEYLESAEQLAVPLDHVPQLRDVSGRLGSISGFTFQSAPALVPLREFCGGLANSVFHSTQYLRHPRSPFYTEDPDLLHDLVGHGNVLASDRFARLYRLAGNAAARVHSTEALQFIGKVFWFTLECGVVRERGERKAYGATLVSSYGELDHFRSADFRPLDIKSLADVEYDISTYQPILFEADSMDEVEDTVGSFWDTCDDDSIAALLGGTSRSVTPH
notes: purified Phe3H
With B1 the Km (purified protein [2]) was 98 ± 10 µM, the kcat (purified protein [2]) was 1.3 ± 0.05 s⁻¹ and the kcat/Km (purified protein [2]) was 13300 ± 650 M⁻¹ s⁻¹. It also gave a Km (purified protein [3]) of 230 ± 60 µM, a kcat (purified protein [3]) of 0.233 ± 0.00833 s⁻¹ and a kcat/Km (purified protein [3]) of 1050 ± 107 M⁻¹ s⁻¹. The Km (purified protein [4]) was 1900 ± 100 µM, the kcat (purified protein [4]) was 0.167 ± 0.00333 s⁻¹ and the kcat/Km (purified protein [4]) was 88.3 ± 2 M⁻¹ s⁻¹. The Km (purified protein [5]; [6]) was 540 ± 70 µM, the kcat (purified protein [5]; [6]) was 0.567 ± 0.0167 s⁻¹ and the kcat/Km (purified protein [5]; [6]) was 1050 ± 48.3 M⁻¹ s⁻¹. It also gave a Km (purified protein [5]; [7]) of 400 ± 60 µM, a kcat (purified protein [5]; [7]) of 0.633 ± 0.0333 s⁻¹ and a kcat/Km (purified protein [5]; [7]) of 1580 ± 118 M⁻¹ s⁻¹.

B2: Phe3H (phenylalanine 3-hydroxylase) (Streptomyces coeruleorubidus; C187A) (protein)
chain: B1 chain with C187A
notes: purified Phe3H
For B2, the Km (purified protein [5]; [8]) was 130 ± 30 µM, the kcat (purified protein [5]; [8]) was 0.217 ± 0.00667 s⁻¹ and the Km (purified protein [5]; [9]) was 100 ± 10 µM. The kcat (purified protein [5]; [9]) was 0.283 ± 0.005 s⁻¹.

B3: Phe3H (phenylalanine 3-hydroxylase) (Streptomyces coeruleorubidus; T202S) (protein)
chain: B1 chain with T202S
notes: purified Phe3H
Molecule B3 has a Km (purified protein [5]; [8]) of 400 ± 300 µM, a kcat (purified protein [5]; [8]) of 0.217 ± 0.0667 s⁻¹ and a Km (purified protein [5]; [9]) of 500 ± 200 µM. The kcat (purified protein [5]; [9]) was 0.433 ± 0.0833 s⁻¹.
